Source: patent US20230277625A1 (SIMCHA IL 18, published 2023)

T1: Mouse IL-18BP (amino acids 31-194), biotinylated (mouse, UniProt Q9Z0M9 29-193, biotin on the AviTag (BirA ligase))
T1 construct: also called mIL-18BP
T1 sequence: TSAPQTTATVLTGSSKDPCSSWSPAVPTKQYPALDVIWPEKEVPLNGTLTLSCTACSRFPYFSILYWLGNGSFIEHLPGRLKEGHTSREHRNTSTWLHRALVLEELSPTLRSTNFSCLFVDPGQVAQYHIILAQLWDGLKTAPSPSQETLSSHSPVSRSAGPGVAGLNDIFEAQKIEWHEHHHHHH

T2: Mouse IL-18Rα ectodomain (amino acids 19-329), biotinylated (mouse, UniProt Q61098 19-329, biotin on the AviTag (BirA ligase))
T2 construct: range 19-329; Secreted from Expi293 cells (H7 signal peptide removed); also called mIL-18Rα; mIL18Ra
T2 sequence: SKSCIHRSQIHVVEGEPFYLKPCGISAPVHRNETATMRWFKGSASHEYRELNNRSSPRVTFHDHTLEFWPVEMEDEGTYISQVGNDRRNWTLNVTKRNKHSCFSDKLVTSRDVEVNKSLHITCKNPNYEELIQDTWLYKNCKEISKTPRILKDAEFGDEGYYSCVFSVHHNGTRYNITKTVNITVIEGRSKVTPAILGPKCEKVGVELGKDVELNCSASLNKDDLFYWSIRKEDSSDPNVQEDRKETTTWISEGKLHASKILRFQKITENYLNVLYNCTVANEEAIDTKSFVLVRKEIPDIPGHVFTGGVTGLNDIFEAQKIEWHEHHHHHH

T3: Human IL-18BP (amino acids 31-194), biotinylated (human, UniProt O95998 31-194, biotin on the AviTag (BirA ligase) where used biotinylated)
T3 construct: Soluble decoy receptor; also called hIL-18BP; recombinant IL-18BP
T3 sequence: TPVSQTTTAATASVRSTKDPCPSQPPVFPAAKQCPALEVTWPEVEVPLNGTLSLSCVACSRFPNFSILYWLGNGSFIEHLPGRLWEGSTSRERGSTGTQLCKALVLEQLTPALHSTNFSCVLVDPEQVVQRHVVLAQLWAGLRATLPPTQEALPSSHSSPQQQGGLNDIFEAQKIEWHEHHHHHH

T4: Human IL-18Rα ectodomain (amino acids 19-329), biotinylated (human, UniProt Q13478 19-329, biotin on the AviTag (BirA ligase))
T4 construct: range 19-329; Secreted from insect cells (gp67 signal peptide removed); also called hIL-18Rα; hIL18Rα
T4 sequence: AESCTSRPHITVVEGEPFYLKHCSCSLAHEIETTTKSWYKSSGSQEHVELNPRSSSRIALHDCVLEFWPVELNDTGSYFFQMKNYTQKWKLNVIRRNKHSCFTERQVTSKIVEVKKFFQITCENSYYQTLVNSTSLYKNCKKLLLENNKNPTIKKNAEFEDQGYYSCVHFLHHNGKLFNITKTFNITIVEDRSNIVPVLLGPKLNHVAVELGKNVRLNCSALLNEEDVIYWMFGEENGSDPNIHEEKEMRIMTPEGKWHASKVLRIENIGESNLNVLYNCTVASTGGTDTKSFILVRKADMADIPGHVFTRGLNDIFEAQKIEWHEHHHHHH


Columns and labels:
[1] = target: T1, Mouse IL-18BP (amino acids 31-194), …; assay: SPR; KD for IL-18BP over KD for IL-18Rα; SPR; ratio of two measured KD
Procedure: (§1) Experiments were conducted using a Biacore T100 and carried out at 25° C. Biotinylated IL-18Rα or IL-18BP were immobilized onto a Biacore biotin capture chip (Series S CAP sensor chip, GE Healthcare) to yield an Rmax of ˜50 RU (IL-18Rα) or ˜10 RU (IL-18BP). Measurements were made with serial dilutions of the IL-18 variants in HEPES buffered Saline-P+buffer (10 mM HEPES pH 7.4, 150 mM NaCl, 0.005% surfactant P20). The surface was regenerated by three 60-sec injections of regeneration buffer (3/4 (v/v) 8M guanidine hydrochloride with 1/4 (v/v) 1M sodium hydroxide). Experiments were performed in multiple channels simultaneously for increased observations. All data were analyzed with the Biacore T100 evaluation software version 2.0 with a 1:1 Langmuir binding model.

[2] = target: T1, Mouse IL-18BP (amino acids 31-194), …; assay: on-yeast binding isotherms; 10 µM used for NBD; yeast-displayed variant; ratio computed with 10 µM put in for NBD
Procedure: (§2) Individual colonies of IL-18 yeast were grown overnight at 30° C. in SDCAA liquid media and induced in SGCAA liquid media for 1 day at 20° C. IL-18 display levels on yeast were verified by flow cytometry using an anti-cMyc tag antibody (anti-myc-PE; Cell Signaling Technologies). Receptor staining with biotinylated IL-18Rα (with or without IL-18R β) or biotinylated IL-18BP was performed in PBS supplemented with 0.5% BSA and 2 mM EDTA (PBE) on ice. All analysis was performed on a Sony SA3800 flow cytometer.

[3] = target: T1, Mouse IL-18BP (amino acids 31-194), …; assay: yeast binding isotherms and SPR; members per FIG. 11A legend
Procedure: as §2, §1

[4] = target: T2, Mouse IL-18Rα ectodomain (amino acids …); assay: SPR (Biacore T100), receptor captured via biotin, IL-18 as analyte
Procedure: as §1

[5] = target: T1, Mouse IL-18BP (amino acids 31-194), …; assay: on-yeast binding isotherms; KD ratio relative to WT IL-18; yeast-displayed variant; ratio normalized to WT, from the 10 µM placeholder
Procedure: as §2

[6] = target: T1, Mouse IL-18BP (amino acids 31-194), …; assay: SPR; KD ratio relative to WT IL-18; SPR; ratio normalized to WT
Procedure: as §1

[7] = target: T2, Mouse IL-18Rα ectodomain (amino acids …); assay: on-yeast binding isotherm (flow cytometry)
Procedure: as §2

[8] = target: T1, Mouse IL-18BP (amino acids 31-194), …; assay: SPR (Biacore T100), IL-18BP captured via biotin, IL-18 as analyte; SPR, soluble variant
Procedure: as §1

[9] = target: T3, Human IL-18BP (amino acids 31-194), …; assay: on-yeast binding isotherms; 20 µM used for NBD
[10] = target: T3, Human IL-18BP (amino acids 31-194), …; assay: on-yeast binding isotherms; KD ratio relative to WT IL-18
[11] = target: T3, Human IL-18BP (amino acids 31-194), …; assay: on-yeast binding isotherms; 20 µM used for NBD; printed without '>'; yeast-displayed variant; ratio computed with 20 µM put in for NBD
[12] = target: T4, Human IL-18Rα ectodomain (amino acids …); assay: SPR (Biacore T100), hIL-18Rα as surface ligand; Exp 2
Procedure: (§3) Surface Plasmon Resonance (SPR) was used to perform biophysical affinity measurements of second generation DR-IL-18 variants (binding to IL-18R vs IL-18BP). Experiments were conducted using a Biacore T100 instrument and carried out at 25° C. Biotinylated IL-18Rα or IL-18BP were immobilized onto a Biacore biotin capture chip (Series S CAP sensor chip, GE Healthcare) to yield an Rmax of ˜50 RU (IL-18Rα) or ˜10 RU (IL-18BP). Measurements were made with serial dilutions of the IL-18 variants in HEPES buffered Saline-P+ buffer (10 mM HEPES pH 7.4, 150 mM NaCl, 0.005% surfactant P20). The surface was regenerated by three 60-sec injections of regeneration buffer (3/4 (v/v) 8M guanidine hydrochloride with ¼ (v/v) 1M sodium hydroxide). Experiments were performed in multiple channels simultaneously for increased observations. All data were analyzed with the Biacore T100 evaluation software version 2.0 with a 1:1 Langmuir binding model.

[13] = target: T4, Human IL-18Rα ectodomain (amino acids …); assay: SPR, apparent KD, second value of the cell
Procedure: as §3

[14] = target: T4, Human IL-18Rα ectodomain (amino acids …); assay: SPR (Biacore T100), hIL-18Rα as surface ligand; Exp 1
Procedure: as §3

[15] = target: T4, Human IL-18Rα ectodomain (amino acids …); assay: SPR
[16] = target: T4, Human IL-18Rα ectodomain (amino acids …); assay: on-yeast binding isotherm (flow cytometry), drawn summary table, IL18Rα (KD)
Procedure: as §2

[17] = target: T4, Human IL-18Rα ectodomain (amino acids …); assay: SPR, apparent KD, first value of the cell
Procedure: as §3

[18] = target: T3, Human IL-18BP (amino acids 31-194), …; assay: SPR; KD(IL-18BP)/KD(IL-18Rα) normalized to WT IL-18; SPR; ratio from the bound KD BP >10,000 nM
Procedure: as §3

[19] = target: T4, Human IL-18Rα ectodomain (amino acids …); assay: SPR (Biacore T100), hIL-18Rα as surface ligand, 1:1 Langmuir
Procedure: as §3

[20] = target: T3, Human IL-18BP (amino acids 31-194), …; assay: on-yeast binding isotherms; KD ratio relative to WT IL-18; yeast-displayed variant; ratio normalized to WT, from the 20 µM placeholder

Binder	KD ratio IL-18BP/IL-18Rα [9]	Dissociation Constant Ratio normalized to WT IL-18 [10]	KD ratio IL-18BP/IL-18Rα [11]	Kd [12]	Kd [13]	Kd [14]	Kd [15]	Kd [16]	Kd [17]	IL-18 BP:Rα Dissociation Constant Ratio [18]	koff [19]	kon [19]	Dissociation Constant Ratio normalized to WT IL-18 [20]	other results
SEQ ID NO: 62 (murine DR-IL-18 variant mC1) (ligand, Engineered variant) NFGRLHCTTAVIRNINDQVLFVDKRQPVFEDMTDIDQSASEPQTRLIIYAYVDRRLRGKAVTLSVKDSKMSTLSCKNKIISFEEMDPPENIDDIQSDLIFFQKKVPGHNKMEFESSLYEGHFLACQKEDDAFKLILKKKDENGDKSVMFTLTNLHQS	–	–	–	–	–	–	–	–	–	–	–	–	–	KD ratio IL-18BP/IL-18Rα [1]: 26300; KD ratio IL-18BP/IL-18Rα [2]: > 233; Kd [3]: > 1000 nM; Kd [4]: 1.09 nM; Dissociation Constant Ratio normalized to WT IL-18 [5]: > 1230; Dissociation Constant Ratio normalized to WT IL-18 [6]: 1.44e+07; Kd [7]: 43 nM; Kd [8]: 28700 nM
SEQ ID NO: 52 (human DR-IL-18 variant hH3) (ligand, Engineered variant) RFGKLESRLSVIRNLNDQVLFIDQGNRPLFEDMTDSDCRDNAPRTIFIISTYKDSQPRGKAVTISVKCEKISTLSCENKIISFKEMNPPDNIKDTKSDIIFFQRDVPGHKHKMQFESSSYEGYFLACEKERDLFKLILKKEDELGDRSIMFTVQNED	> 239	> 809	–	–	–	–	–	–	–	–	–	–	–	–
SEQ ID NO: 57 (human DR-IL-18 variant hB9) (ligand, Engineered variant) RFGKHESKLSVIRNLNDQVLFIDQGNRPLFEDMTDSDCRDNAPRTIFIISTYRDSQPRGKAVTISVKCEKISTLSCENKIISFKEMNPPDNIKDTKSDIIFFERNVPGHKYKMQFESSSYEGYFLACEKERDLFKLILKKEDELGDRSIMFTVQNED	> 157	> 534	–	–	–	–	–	–	–	–	–	–	–	–
SEQ ID NO: 87 (second generation human DR-IL-18 variant 6-31) (ligand, Engineered variant; recombinant soluble analyte in SPR and cell assays) YFGKLESKLSVIRNLNDQVLFIDQGNRPLFEDMTDSDCRDNAPRTIFIISKYGDSGARGLAVTISVKCEKISTLSCENKIISFKEMNPPDNIKDTKSDIIFFERDVPGHSGKVQFESSSYEGYFLACEKERDLFKLILKKEDELGDRSIMFTVQNED	–	–	> 490	15.2 nM	19.4 nM	19.4 nM	19.4 nM	41 nM	15.2 nM	> 1.06e+06	0.00332 s⁻¹	218000 M⁻¹ s⁻¹	> 7200	–
SEQ ID NO: 90 (second generation human DR-IL-18 variant 6-27) (ligand, Engineered variant; recombinant soluble analyte in SPR and cell assays) YFGKLESKLSVIRNLNDQVLFIDQGNRPLFEDMTDSDCRDNAPRTIFIISKYSDSRARGLAVTISVKCEKISTLSCENKIISFKEMNPPDNIKDTKSDIIFFARSVPGHGRKTQFESSSYEGYFLACEKERDLFKLILKKEDELGDRSIMFTVQNED	–	–	> 480	3.85 nM	3.5 nM	3.48 nM	3.5 nM	42 nM	3.9 nM	> 5.86e+06	0.00243 s⁻¹	631000 M⁻¹ s⁻¹	> 7000	–
